{
  "source": "paper PMC10897196",
  "about": "“Structure–activity characteristics of phenylalanine analogs selectively transported by L-type amino acid transporter 1 (LAT1)” (Scientific Reports, 2024)",
  "assay_in_all_cases": "Efflux of pre-loaded L-[14C]alanine from HEK293-hLAT2 cells induced by extracellular compounds",
  "assay_type_in_all_cases": "cell-based, human",
  "details_in_all_cases": "other: LAT2, L-[14C]alanine efflux, 1 min; mean ± S.E.M., n = 3; 37.0 °C",
  "key": {"[1]": {"substrate": "N[C@]1(C(=O)O)CCc2ccccc2C1", "protocol": "(§1) We evaluated the efflux of pre-loaded L-[^14C]leucine from LAT1 and pre-loaded L-[^14C]alanine from LAT2 induced by extracellularly applied compounds.\n(§2) Efflux experiments were performed as described previously. Cells cultured 48 h were pre-loaded with 5 μM L-[^14C]leucine or L-[^14C]alanine for 10 min at 37 °C. The cells were then washed, and the efflux was induced by incubating cells for 1 min in either the absence or presence of non-radiolabeled test compounds at indicated concentrations. The efflux time of 1 min fell within the linear range of time-dependent substrate efflux mediated by LAT1 and LAT2 (Supplementary Fig. S2). Following incubation, the medium was collected and radioactivity was measured in both the medium and the cells. Efflux was quantified as the percentage of radioactivity released into the medium, calculated using the formula: radioactivity of medium/(radioactivity of medium + radioactivity of cells) × 100%.\n(§3) The kinetic parameters for the efflux of L-[^14C]leucine or L-[^14C]alanine induced by various concentrations of extracellularly-applied test compounds were analyzed. The baseline efflux values—those obtained in the absence of test compounds—were subtracted from the values measured in the presence of the compounds. The resultant data were fitted to Michaelis–Menten kinetics to determine the Km and Vmax by nonlinear regression analysis using “enzyme kinetics-velocity as a function of substrate” module within GraphPad Prism software."}, "[2]": {"substrate": "N[C@@H](Cc1ccccc1)C(=O)O", "protocol": "as §1, §2, §3"}, "[3]": {"substrate": "C[C@](N)(Cc1ccccc1)C(=O)O", "protocol": "as §1, §2, §3"}, "[4]": {"substrate": "N[C@@H](Cc1ccccc1I)C(=O)O", "protocol": "as §1, §2, §3"}},
  "note": "Where “and” joins values, the source holds several entries; their conditions need not be identical. Equal values may be shown once.",
  "data": [
    {"protein": "human LAT2 (Homo sapiens) (protein, expressed in transfected cells) MEEGARHRNNTEKKHPGGGESDASPEAGSGGGGVALKKEIGLVSACGIIVGNIIGSGIFVSPKGVLENAGSVGLALIVWIVTGFITVVGALCYAELGVTIPKSGGDYSYVKDIFGGLAGFLRLWIAVLVIYPTNQAVIALTFSNYVLQPLFPTCFPPESGLRLLAAICLLLLTWVNCSSVRWATRVQDIFTAGKLLALALIIIMGIVQICKGEYFWLEPKNAFENFQEPDIGLVALAFLQGSFAYGGWNFLNYVTEELVDPYKNLPRAIFISIPLVTFVYVFANVAYVTAMSPQELLASNAVAVTFGEKLLGVMAWIMPISVALSTFGGVNGSLFTSSRLFFAGAREGHLPSVLAMIHVKRCTPIPALLFTCISTLLMLVTSDMYTLINYVGFINYLFYGVTVAGQIVLRWKKPDIPRPIKINLLFPIIYLLFWAFLLVFSLWSEPVVCGIGLAIMLTGVPVYFLGVYWQHKPKCFSDFIELLTLVSQKMCVVVYPEVERGSGTEEANEDMEEQQQPMYQPTPTKDKDVAGQPQP", "values": [
      {"measurement": "Km", "setting": "[1]", "result": "30 µM and 29.96 ± 4.00 µM"},
      {"measurement": "Km", "setting": "[2]", "result": "25.21 ± 2.43", "unit": "µM"},
      {"measurement": "Km", "setting": "[3]", "result": "246.49 ± 23.00", "unit": "µM"},
      {"measurement": "Km", "setting": "[4]", "result": "35.34 ± 1.95", "unit": "µM"}
    ]}
  ]
}
